According to patent US20240093191A1, “COMPOSITIONS AND METHODS FOR TREATING DISEASE ASSOCIATED WITH DUX4 OVEREXPRESSION” (RESEARCH INSTITUTE AT NATIONWIDE CHILDREN'S HOSPITAL, priority 2021, published 2024):

B1: U6.mir-675: U6 promoter-driven mir-675 expression plasmid with 40 nt 5' and 47 nt 3' flanking sequences (nucleic acid)
DNA: GACGCCGCCATCTCTAGGCCCGCGCCGGCCCCCTCGCACAGACTTGTGGGAGAAGCTCGGCTACTCCCCTGCCCCGGTTAATTTGCATATAATATTTCCTAGTAACTATAGAGGCTTAATGTGCGATAAAAGACAGATAATCTGTTCTTTTTAATACTAGCTACATTTTACATGATAGGCTTGGATTTCTATAAGAGATACAAATACTAAATTATTATTTTAAAAAACAGCACAAAAGGAAACTCACCCTAACTGTAAAGTAATTGTGTGTTTTGAGACTATAAATATCCCTTGGAGAAAAGCCTTGTTTGCGTTTAGTGAACCGTCAGATGGTACCGTTTAAACTCGAGCCCAGGGTCTGGTGCGGAGAGGGCCCACAGTGGACTTGGTGACGCTGTATGCCCTCACCGCTCAGCCCCTGGGACTAGAGCGGCCGCCACAGCGGGGAGATCCAGACATGATAAGATACATTTTTT
B2: H1.mir-675: commercially available H1 promoter mir-675 expression plasmid (SBI Biosciences) (nucleic acid)
DNA: GAACGCTGACGTCATCAACCCGCTCCAAGGAATCGCGGGCCCAGTGTCACTAGGCGGGAACACCCAGCGCGCGTGCGCCCTGGCAGGAAGATGGCTGTGAGGGACAGGGGAGTGGCGCCCTGCAATATTTGCATGTCGCTATGTGTTCTGGGAAATCACCATAAACGTGAAATGTCTTTGGATTTGGGAATCTTATAAGTTCTGTATGAGACCACCCCCCAGGGTCTGGTGCGGAGAGGGCCCACAGTGGACTTGGTGACGCTGTATGCCCTCACCGCTCAGCCCCTGGGGAATTCTTCGATTCTGCTTTTTT

Legend:
DUX4-mir-675Res = test: Western blot against mir-675-resistant DUX4 construct (CMV.DUX4-mir-675Res) in HEK293 cells; type: cell-based, human; conditions: FIG. 20; blinded western blot
Excerpt: Sequence Generation and Cloning. All miRNAs used in this study were designed as previously reported in [Wallace et al., Mol. Ther. Methods Clin. Dev. 8:121-130 (2018)]. All miDUX4s were cloned into the mir-30 based/U6 construct as previously described [Wallace et al., Mol. Ther. 20:1417-23 (2012)]. MicroRNA-675 sequence was obtained from the miRBase database (www.mirbase.org), and all mir-675 constructs used in this study were cloned into an expression plasmid downstream of an RNA polymerase III class of promoters (U6 or H1 promoters). The sequence of the stem loop structure of mir-675, mir-675-5p and mir-675-3p constructs is shown in FIG. 17A-B. The CMV.H19 construct was purchased from OriGene. The psi2-DUX4FI was PCR amplified using the AAV.CMV.DUX44V5 construct as template, and the following primers: forward primer: […] (SEQ ID NO: 127), and reverse primer: […] (SEQ ID NO: 128). The PCR product was then cloned into a previously designed psicheck2 (psi2) SD5 mutant (Renilla luciferase have the SD5 mutant) plasmid [Ansseau et al., Plos One 10: e0118813 (2015)] using XhoI/SpeI restriction sites and the psi2.SD5 mutant-DUX4 3′UTR plasmid backbone. […] In addition, this plasmid contains a cytomegalovirus promoter (CMVp)-driven DUX4 full-length sequence encompassing the DUX4 open reading frame (DUX4 ORF), the DUX4 3′UTR sequence (pLAM sequence). […]

mir-675-5p = test: Small-transcript northern blot of mir-675 processing in HEK293 cells; type: cell-based, human; conditions: for mature mir-675-5p bands on northern blot: HEK293, anti-mir-675-5p biotinylated probe
Excerpt: Small-Transcript Northern Blots. […] (SEQ ID NO: 148)).

Row | Molecule | effect on DUX4 protein level of mir-675-resistant DUX4 construct (DUX4-mir-675Res) | mature mir-675-5p bands on northern blot (mir-675-5p) | mature mir-675-5p produced at 48h versus 24h post-transfection (mir-675-5p) [fold] | mature mir-675-5p abundance relative to U6.mir-675-generated (mir-675-5p; 24 h post-transfection) [fold] | mature mir-675-5p abundance relative to U6.mir-675-generated (mir-675-5p; 48 h post-transfection) [fold]
1 | B1 | not able to reduce DUX4 protein level | low levels of the mature mir-675-5p |  |  | 
2 | B2 | not able to reduce DUX4 protein level | abundant levels of the mature mir-675-5p | 1.4 | 13 | 23
